The source of these data is article PMC6019379, “RecA-like domain 2 of DNA-dependent ATPase A domain, a SWI2/SNF2 protein, mediates conformational integrity and ATP hydrolysis” (Bioscience Reports, 2018).

One may read the Kd as the concentration at which binding is half-saturated.

What all share (assay): intrinsic tryptophan fluorescence titration; no ATP; Fluorescence titration (ex 295 nm, em 340 nm), one-site saturation fit; buffer, salt, pH and temperature not given in the material. Wild-type ADAAD Kd values are cited from ref 24 and not listed
Holding throughout (details): protein: recombinant; tags: His (Ni-NTA, pET-14b); hairpin

For one data set, the target named is T1, ADAAD R592A (Bos taurus (bovine), UniProt Q9TTA5 221-940, R812A).
T1 sequence: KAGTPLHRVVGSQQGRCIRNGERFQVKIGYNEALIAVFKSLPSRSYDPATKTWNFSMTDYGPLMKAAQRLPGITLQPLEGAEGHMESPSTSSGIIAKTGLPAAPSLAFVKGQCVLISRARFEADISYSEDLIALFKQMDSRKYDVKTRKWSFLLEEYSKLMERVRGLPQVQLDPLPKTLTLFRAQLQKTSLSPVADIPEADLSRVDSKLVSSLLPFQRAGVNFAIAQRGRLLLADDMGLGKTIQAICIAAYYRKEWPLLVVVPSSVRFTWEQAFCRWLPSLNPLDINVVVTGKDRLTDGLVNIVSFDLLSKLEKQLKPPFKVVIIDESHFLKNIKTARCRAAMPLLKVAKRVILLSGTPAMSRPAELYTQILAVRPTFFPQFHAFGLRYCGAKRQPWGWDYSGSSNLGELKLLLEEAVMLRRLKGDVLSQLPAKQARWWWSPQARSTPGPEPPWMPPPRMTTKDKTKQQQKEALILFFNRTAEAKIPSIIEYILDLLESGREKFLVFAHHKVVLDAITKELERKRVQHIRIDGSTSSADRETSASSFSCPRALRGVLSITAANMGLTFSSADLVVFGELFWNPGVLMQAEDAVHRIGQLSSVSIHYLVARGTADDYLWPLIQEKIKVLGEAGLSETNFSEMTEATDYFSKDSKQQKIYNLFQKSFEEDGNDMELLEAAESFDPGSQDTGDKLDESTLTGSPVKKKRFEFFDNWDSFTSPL

For another data set, the target named is T2, ADAAD R595K (Bos taurus (bovine), UniProt Q9TTA5 221-940, R815K).
T2 sequence: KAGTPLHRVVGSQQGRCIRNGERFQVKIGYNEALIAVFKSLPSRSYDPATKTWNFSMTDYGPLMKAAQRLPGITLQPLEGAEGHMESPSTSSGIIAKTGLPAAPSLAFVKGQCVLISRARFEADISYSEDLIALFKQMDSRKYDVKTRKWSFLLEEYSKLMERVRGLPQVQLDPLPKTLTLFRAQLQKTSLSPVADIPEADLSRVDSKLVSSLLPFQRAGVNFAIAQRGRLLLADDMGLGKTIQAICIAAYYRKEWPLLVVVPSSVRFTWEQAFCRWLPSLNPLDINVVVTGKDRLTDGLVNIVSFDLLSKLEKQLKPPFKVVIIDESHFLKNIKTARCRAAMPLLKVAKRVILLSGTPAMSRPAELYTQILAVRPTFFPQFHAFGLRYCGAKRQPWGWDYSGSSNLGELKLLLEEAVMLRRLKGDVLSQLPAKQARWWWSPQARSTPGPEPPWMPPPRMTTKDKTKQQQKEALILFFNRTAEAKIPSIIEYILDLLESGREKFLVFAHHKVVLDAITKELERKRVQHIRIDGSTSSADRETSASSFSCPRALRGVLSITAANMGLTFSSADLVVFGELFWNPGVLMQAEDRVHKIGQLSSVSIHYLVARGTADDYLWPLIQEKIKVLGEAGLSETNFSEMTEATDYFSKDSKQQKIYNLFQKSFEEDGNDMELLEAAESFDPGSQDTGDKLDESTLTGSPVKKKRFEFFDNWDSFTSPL

In the next data set the target is T3, ADAAD F507W (Bos taurus (bovine), UniProt Q9TTA5 221-940, F727W).
T3 sequence: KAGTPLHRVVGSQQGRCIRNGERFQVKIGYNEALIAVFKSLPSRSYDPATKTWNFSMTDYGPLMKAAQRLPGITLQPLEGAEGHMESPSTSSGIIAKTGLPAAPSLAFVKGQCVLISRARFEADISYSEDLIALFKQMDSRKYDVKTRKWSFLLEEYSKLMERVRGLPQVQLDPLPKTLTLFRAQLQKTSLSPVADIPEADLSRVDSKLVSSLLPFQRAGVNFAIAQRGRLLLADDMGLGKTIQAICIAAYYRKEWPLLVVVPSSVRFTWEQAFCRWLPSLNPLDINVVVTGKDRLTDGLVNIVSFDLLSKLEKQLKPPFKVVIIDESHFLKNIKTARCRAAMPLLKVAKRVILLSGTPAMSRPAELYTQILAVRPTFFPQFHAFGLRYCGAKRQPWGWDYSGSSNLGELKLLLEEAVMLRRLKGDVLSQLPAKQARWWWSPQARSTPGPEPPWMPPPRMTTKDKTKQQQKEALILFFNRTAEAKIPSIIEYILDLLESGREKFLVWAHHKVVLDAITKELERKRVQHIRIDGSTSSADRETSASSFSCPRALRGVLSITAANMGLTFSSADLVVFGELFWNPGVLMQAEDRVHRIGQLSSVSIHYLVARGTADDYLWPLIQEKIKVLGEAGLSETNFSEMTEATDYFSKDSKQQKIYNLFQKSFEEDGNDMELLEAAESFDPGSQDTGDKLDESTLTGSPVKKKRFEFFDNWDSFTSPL

On to GCGCAATTGCGCTCGACGATTTTTTAGCGCAATTGCGC (structured_DNA) [slDNA (stem-loop DNA)], for which the Kd in the data set with ADAAD R592A came to 31.5 ± 1.3 nM; with ADAAD R595K, 25.1 ± 7.4 nM; with ADAAD F507W it was 44.8 ± 9 nM.
